Results as given in PMC4215112 (2014).

B1: M0418 scFv-Fcε fusion protein [human] / Bet v 1.0101 peptide I56 to D69 [modified: biotin at the N-terminus, before the additional glycine; biotin at the N-terminus, before the additional glycine] [birch] (parent complex)
chain 1: QVQLVQSGAEVKKPGESLKISCKGSEYSFPNYWIAWVRQMPGKGLEWMGMIYPGDSDTRYSPSFQGQVNISADKSSRTAFLEWSSLKASDSATYFCARLGGQLWNSYYYYYYMDVWGKGTTVTVSSGGGGSGGGGSGGGGSSYELTQPPSASGTPGQRVTISCSGSSSNIGGNTVNWYQQVPGTAPRLLIYKNNQRPSGVPDRFSGSKSGTSASLAISGLRSEDEADYYCEAWDGGLRGGVFGGGTKLTVLGDYKDDDDKAAA
chain 2: GISFPEGFPFKYVKDG

Variants of: B1
Experiment: ELISA; parent: 3.4; read off a plot

Compared with chain 2 GISFPEGIPFKYVKDG [chain 2 F8I], chain 2 GISFPEGLPFKYVKDG [chain 2 F8L] is lower in response: ~2.8 Absorbance (450 nm) for the first, ~0.2 Absorbance (450 nm) for the second.

Compared with chain 2 GISFPEGSPFKYVKDG [chain 2 F8S], chain 2 GISFSEGFPFKYVKDG [chain 2 P5S] is lower in response: ~0.22 Absorbance (450 nm) for the first, ~0.17 Absorbance (450 nm) for the second.

chain 2 GISFPKGFPFKYVKDG [chain 2 E6K] and chain 2 GITFPEGFPFKYVKDG [chain 2 S3T] are the same in response: ~3.4 Absorbance (450 nm) for the first, ~3.4 Absorbance (450 nm) for the second.

chain 2 GINFPEGFPFKYVKDG [chain 2 S3N] and chain 2 GISFPEGFPVKYVKDG [chain 2 F10V] are the same in response: ~3.4 Absorbance (450 nm) for the first, ~3.4 Absorbance (450 nm) for the second.

First: chain 2 GISFPEGFPFKYVKEG [chain 2 D15E]
Second: chain 2 GISFPEGFPFEYVKDG [chain 2 K11E]
The response of the first is higher: ~3.4 Absorbance (450 nm) for the first, ~2 Absorbance (450 nm) for the second.

With chain 2 GISFPEGFPFRYVKDG [chain 2 K11R] the response was ~0.22 Absorbance (450 nm).
